Measured values reported in patent US20150065381A1.
“And” between values parts separate entries of the source, which are not always exact repeats. Equal values may be shown once.

Columns and labels:
[1] = biological target: HIV-1 16055 envelope (HIV-1); test: capture ELISA, plate 2, mAb 0.8 ug/ml
[2] = biological target: HIV-1 JRCSF envelope (HIV-1) (UniProt P20871); test: capture ELISA, plate 2, mAb 0.8 ug/ml
[3] = biological target: HIV-1 JRFL envelope (HIV-1); test: capture ELISA, plate 2, mAb 0.8 ug/ml
[4] = biological target: HIV-1 envelope clone G-011.c02 (multiclade gp160 clone panel) (HIV-1); test: capture ELISA, plate 2, mAb 0.8 ug/ml
[5] = biological target: HIV-1 envelope clone G-011.c05 (multiclade gp160 clone panel) (HIV-1); test: capture ELISA, plate 2, mAb 0.8 ug/ml
[6] = biological target: HIV-1 envelope of gp160 clone AG-010.c11 (HIV-1); test: capture ELISA, plate 2, mAb 0.8 ug/ml
[7] = biological target: HIV-1 envelope of gp160 clone AG-010.c14 (HIV-1); test: capture ELISA, plate 2, mAb 0.8 ug/ml
[8] = biological target: HIV-1 envelope of gp160 clone B-Acute-008.c11 (HIV-1); test: capture ELISA, plate 2, mAb 0.8 ug/ml
[9] = biological target: HIV-1 envelope of gp160 clone B-Acute-009-c08 (HIV-1); test: capture ELISA, plate 2, mAb 0.8 ug/ml
[10] = biological target: HIV-1 envelope of gp160 clone B-Acute-010.c08 (HIV-1); test: capture ELISA, plate 2, mAb 0.8 ug/ml
[11] = biological target: HIV-1 envelope of gp160 clone B-Acute-010.c09 (HIV-1); test: capture ELISA, plate 2, mAb 0.8 ug/ml
[12] = biological target: HIV-1 envelope of gp160 clone B-Chronic-014.c02 (HIV-1); test: capture ELISA, plate 2, mAb 0.8 ug/ml
[13] = biological target: HIV-1 envelope clone G-011.c02 (multiclade gp160 clone panel) (HIV-1); test: capture ELISA, plate 2, mAb 2.5 ug/ml
[14] = biological target: HIV-1 envelope of gp160 clone AG-010.c14 (HIV-1); test: capture ELISA, plate 2, mAb 2.5 ug/ml
[15] = biological target: HIV-1 envelope of gp160 clone B-Acute-008.c11 (HIV-1); test: capture ELISA, plate 2, mAb 2.5 ug/ml
[16] = biological target: HIV-1 16055 envelope (HIV-1); test: capture ELISA, plate 2, mAb 7.5 ug/ml
[17] = biological target: HIV-1 JRCSF envelope (HIV-1) (UniProt P20871); test: capture ELISA, plate 2, mAb 7.5 ug/ml
[18] = biological target: HIV-1 JRFL envelope (HIV-1); test: capture ELISA, plate 2, mAb 7.5 ug/ml
[19] = biological target: HIV-1 envelope clone G-011.c02 (multiclade gp160 clone panel) (HIV-1); test: capture ELISA, plate 2, mAb 7.5 ug/ml
[20] = biological target: HIV-1 envelope clone G-011.c05 (multiclade gp160 clone panel) (HIV-1); test: capture ELISA, plate 2, mAb 7.5 ug/ml
[21] = biological target: HIV-1 envelope of gp160 clone AG-010.c11 (HIV-1); test: capture ELISA, plate 2, mAb 7.5 ug/ml
[22] = biological target: HIV-1 envelope of gp160 clone AG-010.c14 (HIV-1); test: capture ELISA, plate 2, mAb 7.5 ug/ml
[23] = biological target: HIV-1 envelope of gp160 clone B-Acute-008.c11 (HIV-1); test: capture ELISA, plate 2, mAb 7.5 ug/ml
[24] = biological target: HIV-1 envelope of gp160 clone B-Acute-009-c08 (HIV-1); test: capture ELISA, plate 2, mAb 7.5 ug/ml
[25] = biological target: HIV-1 envelope of gp160 clone B-Acute-010.c08 (HIV-1); test: capture ELISA, plate 2, mAb 7.5 ug/ml
[26] = biological target: HIV-1 envelope of gp160 clone B-Acute-010.c09 (HIV-1); test: capture ELISA, plate 2, mAb 7.5 ug/ml
[27] = biological target: HIV-1 envelope of gp160 clone B-Chronic-014.c02 (HIV-1); test: capture ELISA, plate 2, mAb 7.5 ug/ml
[28] = biological target: HIV-1 envelope clone BF-002.c05 (multiclade gp160 clone panel) (HIV-1); test: capture ELISA, plate 2, mAb 0.8 ug/ml
[29] = biological target: HIV-1 envelope clone BF-002.c08 (multiclade gp160 clone panel) (HIV-1); test: capture ELISA, plate 2, mAb 0.8 ug/ml
[30] = biological target: HIV-1 envelope clone F1-002.c11 (multiclade gp160 clone panel) (HIV-1); test: capture ELISA, plate 2, mAb 0.8 ug/ml
[31] = biological target: HIV-1 envelope clone F1-002.c16 (multiclade gp160 clone panel) (HIV-1); test: capture ELISA, plate 2, mAb 0.8 ug/ml
[32] = biological target: HIV-1 envelope clone F1-002.c11 (multiclade gp160 clone panel) (HIV-1); test: capture ELISA, plate 2, mAb 2.5 ug/ml
[33] = biological target: HIV-1 envelope clone F1-002.c16 (multiclade gp160 clone panel) (HIV-1); test: capture ELISA, plate 2, mAb 2.5 ug/ml
[34] = biological target: HIV-1 envelope clone BF-002.c05 (multiclade gp160 clone panel) (HIV-1); test: capture ELISA, plate 2, mAb 7.5 ug/ml
[35] = biological target: HIV-1 envelope clone BF-002.c08 (multiclade gp160 clone panel) (HIV-1); test: capture ELISA, plate 2, mAb 7.5 ug/ml
[36] = biological target: HIV-1 envelope clone F1-002.c11 (multiclade gp160 clone panel) (HIV-1); test: capture ELISA, plate 2, mAb 7.5 ug/ml
[37] = biological target: HIV-1 envelope clone F1-002.c16 (multiclade gp160 clone panel) (HIV-1); test: capture ELISA, plate 2, mAb 7.5 ug/ml

Row | Substance | ELISA OD [2] | ELISA OD [4] | ELISA OD [5] | ELISA OD [6] | ELISA OD [7] | ELISA OD [8] | ELISA OD [9] | ELISA OD [10] | ELISA OD [11] | ELISA OD [12] | ELISA OD [13] | ELISA OD [14] | ELISA OD [15] | ELISA OD [17] | ELISA OD [19] | ELISA OD [20] | ELISA OD [21] | ELISA OD [22] | ELISA OD [23] | ELISA OD [24] | further results
1 | PG9 (antibody) | 0.146 OD and 0.147 OD | 0.052 OD | 0.116 OD | 0.411 OD | 0.528 OD | 0.11 OD | 0.062 OD | 0.125 OD | 0.067 OD | 0.768 OD | 0.052 OD | 0.834 OD | 0.168 OD | 0.211 OD and 0.205 OD | 0.099 OD | 0.235 OD | 0.65 OD | 0.852 OD | 0.204 OD | 0.114 OD | ELISA OD [1]: 0.169 OD and 0.18 OD; ELISA OD [3]: 0.06 OD and 0.05 OD; ELISA OD [16]: 0.263 OD and 0.251 OD; ELISA OD [18]: 0.07 OD and 0.054 OD; ELISA OD [25]: 0.33 OD; ELISA OD [26]: 0.151 OD; ELISA OD [27]: 1.48 OD
2 | PG16 (antibody) | 0.135 OD and 0.136 OD | 0.062 OD | 0.097 OD | 0.173 OD | 0.51 OD | 0.146 OD | 0.058 OD | 0.132 OD | 0.105 OD | 0.318 OD | 0.07 OD | 0.686 OD | 0.267 OD | 0.226 OD and 0.245 OD | 0.097 OD | 0.153 OD | 0.302 OD | 0.8 OD | 0.215 OD | 0.092 OD | ELISA OD [28]: 0.586 OD; ELISA OD [29]: 0.103 OD; ELISA OD [30]: 0.12 OD; ELISA OD [31]: 0.302 OD; ELISA OD [32]: 0.121 OD; ELISA OD [33]: 0.349 OD; ELISA OD [34]: 0.764 OD; ELISA OD [35]: 0.164 OD; ELISA OD [36]: 0.154 OD; ELISA OD [37]: 0.217 OD; ELISA OD [25]: 0.301 OD; ELISA OD [26]: 0.244 OD; ELISA OD [27]: 0.513 OD
3 | PGT145 (antibody) | 0.087 OD and 0.063 OD | 0.071 OD | 0.096 OD | 0.074 OD | 0.074 OD | 0.095 OD | 0.178 OD | 0.125 OD | 0.065 OD | 0.059 OD | 0.07 OD | 0.076 OD | 0.103 OD | 0.111 OD and 0.089 OD | 0.112 OD | 0.138 OD | 0.146 OD | 0.094 OD | 0.148 OD | 0.15 OD | ELISA OD [1]: 0.067 OD and 0.064 OD; ELISA OD [3]: 0.062 OD and 0.054 OD; ELISA OD [28]: 0.192 OD; ELISA OD [29]: 0.057 OD; ELISA OD [30]: 0.067 OD; ELISA OD [31]: 0.375 OD; ELISA OD [32]: 0.072 OD; ELISA OD [33]: 0.456 OD; ELISA OD [16]: 0.117 OD and 0.09 OD; ELISA OD [18]: 0.093 OD and 0.082 OD; ELISA OD [34]: 0.649 OD; ELISA OD [35]: 0.074 OD; ELISA OD [36]: 0.099 OD; ELISA OD [37]: 0.518 OD; ELISA OD [25]: 0.276 OD; ELISA OD [26]: 0.11 OD; ELISA OD [27]: 0.092 OD
4 | PGT151 (antibody) | 0.064 OD and 0.055 OD | 0.081 OD | 0.079 OD | 0.061 OD | 0.131 OD | 0.203 OD | 0.082 OD | 0.135 OD | 0.087 OD | 0.2 OD | 0.113 OD | 0.149 OD | 0.266 OD | 0.098 OD and 0.121 OD | 0.197 OD | 0.125 OD | 0.116 OD | 0.191 OD | 0.209 OD | 0.191 OD | ELISA OD [1]: 0.06 OD; ELISA OD [3]: 0.077 OD and 0.054 OD; ELISA OD [28]: 0.133 OD; ELISA OD [29]: 0.054 OD; ELISA OD [30]: 0.072 OD; ELISA OD [31]: 0.082 OD; ELISA OD [32]: 0.115 OD; ELISA OD [33]: 0.114 OD; ELISA OD [16]: 0.119 OD and 0.118 OD; ELISA OD [18]: 0.138 OD and 0.149 OD; ELISA OD [34]: 0.253 OD; ELISA OD [35]: 0.102 OD; ELISA OD [36]: 0.135 OD; ELISA OD [37]: 0.138 OD; ELISA OD [25]: 0.21 OD; ELISA OD [26]: 0.121 OD; ELISA OD [27]: 0.462 OD
5 | PGV04 (antibody) | 1.03 OD and 1.35 OD | 0.326 OD | 0.168 OD | 0.103 OD | 0.169 OD | 0.094 OD | 0.095 OD | 0.659 OD | 0.913 OD | 3.37 OD | 0.712 OD | 0.283 OD | 0.078 OD | 2.78 OD and 2.65 OD | 1.25 OD | 0.719 OD | 0.22 OD | 1.68 OD | 0.109 OD | 0.459 OD | ELISA OD [28]: 2.07 OD; ELISA OD [29]: 1.37 OD; ELISA OD [30]: 0.084 OD; ELISA OD [31]: 0.139 OD; ELISA OD [32]: 0.156 OD; ELISA OD [33]: 0.303 OD; ELISA OD [34]: 4 OD; ELISA OD [35]: 3.2 OD; ELISA OD [36]: 0.506 OD; ELISA OD [37]: 0.626 OD; ELISA OD [25]: 3.25 OD; ELISA OD [26]: 3.44 OD; ELISA OD [27]: 4 OD
